Assay results reported in PMC6972956.

What was measured:
[1] = biological target: recombinant integrin αVβ3 stably expressed on K562 cells (UniProt P06756); test: flow cytometry on cells; displacement of Alexa647-labeled hFN10 from αVβ3-K562 cells by unlabeled hFN10 or Hr10; buffer A (1 mM MgCl2, 1 mM CaCl2), RT
[2] = biological target: recombinant integrin αIIbβ3 stably expressed on K562 cells (UniProt P08514); test: flow cytometry on cells; mAb PT-25-activated αIIbβ3-K562 cells incubated 30 min at RT with serially diluted unlabeled Hr10, hFN10 or eptifibatide in the presence of 0.5 µM Alexa647-conjugated FB; buffer A

Sequence of UniProt P06756 (P06756 31-1048, chain 1 of 2): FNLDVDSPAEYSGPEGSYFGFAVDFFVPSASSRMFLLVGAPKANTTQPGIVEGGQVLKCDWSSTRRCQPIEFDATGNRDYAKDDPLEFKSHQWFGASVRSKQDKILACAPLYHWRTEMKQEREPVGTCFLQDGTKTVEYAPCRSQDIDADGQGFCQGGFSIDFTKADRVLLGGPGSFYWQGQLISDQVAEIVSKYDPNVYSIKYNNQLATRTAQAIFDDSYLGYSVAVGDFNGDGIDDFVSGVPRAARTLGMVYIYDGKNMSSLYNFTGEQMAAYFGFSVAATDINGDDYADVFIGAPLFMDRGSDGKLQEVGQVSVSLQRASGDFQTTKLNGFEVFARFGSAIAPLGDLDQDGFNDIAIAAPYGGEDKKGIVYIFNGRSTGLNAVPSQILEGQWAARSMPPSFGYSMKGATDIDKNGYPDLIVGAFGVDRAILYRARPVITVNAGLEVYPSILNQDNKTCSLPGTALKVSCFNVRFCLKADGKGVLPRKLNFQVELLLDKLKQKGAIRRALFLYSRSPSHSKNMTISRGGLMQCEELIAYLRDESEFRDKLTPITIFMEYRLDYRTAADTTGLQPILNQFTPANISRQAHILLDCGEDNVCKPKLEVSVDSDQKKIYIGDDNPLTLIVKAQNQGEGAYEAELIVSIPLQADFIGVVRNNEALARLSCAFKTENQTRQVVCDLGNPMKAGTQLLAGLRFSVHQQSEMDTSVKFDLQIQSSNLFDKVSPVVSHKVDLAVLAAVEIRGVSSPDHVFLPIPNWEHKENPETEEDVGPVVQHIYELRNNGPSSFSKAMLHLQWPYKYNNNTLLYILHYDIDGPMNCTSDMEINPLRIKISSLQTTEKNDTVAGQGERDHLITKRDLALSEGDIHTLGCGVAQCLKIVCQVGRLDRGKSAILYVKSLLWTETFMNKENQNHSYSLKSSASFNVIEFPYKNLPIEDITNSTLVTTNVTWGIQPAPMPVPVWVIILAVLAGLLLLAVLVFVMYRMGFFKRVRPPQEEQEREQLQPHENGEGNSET
Sequence of UniProt P06756 (P05106 27-788, chain 2 of 2, further chain): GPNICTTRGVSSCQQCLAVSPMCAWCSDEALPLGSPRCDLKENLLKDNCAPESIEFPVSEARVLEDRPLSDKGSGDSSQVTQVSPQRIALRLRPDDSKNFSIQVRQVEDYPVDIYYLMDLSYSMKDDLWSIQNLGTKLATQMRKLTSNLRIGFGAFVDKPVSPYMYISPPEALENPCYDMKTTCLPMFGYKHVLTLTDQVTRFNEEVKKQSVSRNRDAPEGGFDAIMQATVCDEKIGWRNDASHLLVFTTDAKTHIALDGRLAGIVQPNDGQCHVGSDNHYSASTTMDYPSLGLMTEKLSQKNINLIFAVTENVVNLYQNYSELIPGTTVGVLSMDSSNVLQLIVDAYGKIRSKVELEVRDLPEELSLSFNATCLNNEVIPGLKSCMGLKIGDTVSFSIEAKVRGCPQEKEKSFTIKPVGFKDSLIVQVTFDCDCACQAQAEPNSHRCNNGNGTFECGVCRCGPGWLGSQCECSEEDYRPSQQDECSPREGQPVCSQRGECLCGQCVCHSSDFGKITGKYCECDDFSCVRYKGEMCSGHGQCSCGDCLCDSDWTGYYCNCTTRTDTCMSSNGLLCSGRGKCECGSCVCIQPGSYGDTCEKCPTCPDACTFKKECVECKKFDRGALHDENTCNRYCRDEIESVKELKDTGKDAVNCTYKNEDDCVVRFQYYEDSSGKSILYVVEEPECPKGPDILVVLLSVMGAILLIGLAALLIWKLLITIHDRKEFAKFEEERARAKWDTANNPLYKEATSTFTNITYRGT

Substance	IC50 [1] [nM]	IC50 [2] [nM]
hFN10 (from UniProt P02751 1539-1631) (designed binder)	3.6	474
eptifibatide (peptide)		73.2
